# Reference: publication PMC12484072 (Frontiers in Microbiology, 2025)
# Values joined by “and” are separate entries in the source; they are usually repeats but may differ in a detail not shown here. Identical values can stand only once. Bridge positions count the residues as written; N and C are the ends. Square brackets hold non-standard residues; d marks the D form. Ends that are not written are not given here. dOrn = NCCC[C@@H](N)C(=O)O
# Biological target: T1, SaNsrP-ECD, soluble extracellular domain of SaNsrP (S. agalactiae)
# T1 construct: also called SaNsrFP ECD
# Test: other fluorescence titration
# Settings: both partners purified
binder,measurement,value
ICL[dE]IK[dOrn]I[dF]H[dD]N (lactam 6-C; also: N-terminal thiazoline: Ile1-Cys2 condensed) [bacitracin],Kd,259 µM and 304 µM
